Measurements taken from patent US20260217819A1 (HANSOH BIO, published 2026).
Changes are numbered by the printed parent chain. Each block holds one binder with its values, some of them ahead of it.

Key:
[1] = molecular target: human CDH17 as originally expressed in cells (AsPC1, GP2d) (human, UniProt Q12864 23-832); experiment: cell-based or functional assay
[2] = molecular target: cynomolgus CDH17-His tag (Acro Biosystems, catalog number CA7-C52H4) (cynomolgus); experiment: Octet BLI, antibody on AHC biosensor, His-tagged antigen 200 nM to 3.1 nM

B1: anti-CDH17 recombinant antibody 4F9 (human IgG1) (antibody, V domains shown)
VH: QVQLQESGPGLVKPSGTLSLTCAVSGGSISSSNWWSWVRQPPGKGLEWIGEIYHSGSTSYNPSLKSRVTISVDKSKNQFSLKLSSVTAADTAVYYCARNDWGFPLDCWGQGTLVTVSS
VL: DIQMTQSPSSLSASVGDRVTITCRASQSISSYLNWYQQKPGKAPKLLIYAASSLQSGVPSRFSGSGSGTHFTLTISSLQPEDFATYYCQQSHNIPITFGQGTRLEIKR
- IC50 of indirect killing assay to evaluate the internalization of recombinant anti-CDH17 antibodies into AsPC1 cells [1]: 0.29 nM

- Kd [2]: 2.5 nM
- kon [2]: 620000 M⁻¹ s⁻¹
B2: anti-CDH17 recombinant antibody 14B12 (human IgG1) (antibody, V domains shown)
VH: QVQLQESGPGLVKPSETLSLTCTVSGGSINTYYRSWIRQPPGKGLEWIGYIYYSGNTNYNPSLKSRVTISADTSKNQFSLNLISVTAADTAMYYCARAQYGEEAFDIWGQGTLVTVSS
VL: DIQMTQSPSSLSASVGDRVTITCRASQSITTYLNWYQQKPGKAPQLLIFAASRLQTGVPSRFSGSGSGTDFTLTISSLLPGDFATYYCQQSYNTPPTFGGGTKVEIKR
- IC50 of indirect killing assay to evaluate the internalization of recombinant anti-CDH17 antibodies into AsPC1 cells [1]: 0.09 nM

- Kd [2]: 15 nM
- koff [2]: 0.0012 s⁻¹
- kon [2]: 80000 M⁻¹ s⁻¹
B3: anti-CDH17 recombinant antibody 10E11 (human IgG1) (antibody, V domains shown)
VH: EVQLVQSGTEVKKPGESLKISCKDSGYRFSSYWIGWVRQMPGKGLEWMGIIYPGDSDTRYSPSFQGQVTISADKSISTAYLQWRSLKASDTAMYYCARRGWVNYFDYWGQGTLVTVSS
VL: DIQMTQSPSSVSASVGDRVTITCRASQGISNWLGWYQQKPGKAPKLLIYAASSLQSGVPSRFSGSGSGTDFTLTISSLQPEDFATYYCQQANSFPLTFGGGTKVEIKR
- IC50 of indirect killing assay to evaluate the internalization of recombinant anti-CDH17 antibodies into AsPC1 cells [1]: 0.08 nM

B4: anti-CDH17 recombinant antibody 17F3 (human IgG1) (antibody, V domains shown)
VH: EVQLVESGGGLVKSGGSLRLSCAASGFTFSSYSLKWVRQAPGKGLEWVSSISSSSGYIYYADSVKGRFTISRDNAKNSLYLQMNSLRAEDTAMYYCARAVSTIAARPGYYYYYMDVWGKGTLVTVSS
VL: B3 VL with V15I, G28D, N31T, L33F, G34A, S53T, Q55R, S76N
- IC50 of indirect killing assay to evaluate the internalization of recombinant anti-CDH17 antibodies into AsPC1 cells [1]: 0.08 nM

B5: anti-CDH17 recombinant antibody 1H10 (human IgG1) (antibody, V domains shown)
VH: QVQLVESGGGVVQPGRSLRLSCVASGFTFSSYGMHWVRQAPGKGLEWVTFIWYDGSNKNYADSVKGRFTISRDNSKNTLNLQMNSLRVEDTAVYYCARDRYSSGWDVFDYWGQGTLVTVSS
VL: B3 VL with G28D, N31S, G34A, K39Q, L47Q, N92K, L96P, G100Q
- IC50 of indirect killing assay to evaluate the internalization of recombinant anti-CDH17 antibodies into AsPC1 cells [1]: 0.19 nM

B6: anti-CDH17 recombinant antibody 15A4 (human IgG1) (antibody, V domains shown)
VH: B5 VH with V23A, T28N, T49A, I51V, K58Q, K76N, N80Y, V88A
VL: B3 VL with N31S, G34A, Y49F, D70G, N92K, L96P, G100Q
- IC50 of indirect killing assay to evaluate the internalization of recombinant anti-CDH17 antibodies into AsPC1 cells [1]: 1.99 nM

B7: anti-CDH17 recombinant antibody 13C7 (human IgG1) (antibody, V domains shown)
VH: QITLKESGPTLVKPTQTLTLTCTFSGFSLSTSGVGVGWIRQPPGKALEWLALIYWNDDKRYRPSLKNRLTITKDTSKNQVVLTMTNMDPVDTATYYCTHYGVTAPFYNWFDPWGQGTLVTVSS
VL: DIQMTQSPSSLSASVGDRVTITCRASQSITSYLNWYQQKPGKAPKLLIYAASSLQSGVPSRFSGSGSGTDFTLTISSLQPEDFATYYCQRSYSTLTFGGGTKVEIKR
- IC50 of indirect killing assay to evaluate the internalization of recombinant anti-CDH17 antibodies into AsPC1 cells [1]: 0.09 nM

B8: anti-CDH17 recombinant antibody 19C7 (human IgG1) (antibody, V domains shown)
VH: B7 VH with F27I, S32G, A51S, R62S, N67S, T75S, T98A, Y100S, V102L, T103A
VL: B7 VL with T30S, S31N, Q38L, K42N, Y49F, Y87F
- IC50 of indirect killing assay to evaluate the internalization of recombinant anti-CDH17 antibodies into AsPC1 cells [1]: 0.09 nM

B9: anti-CDH17 recombinant antibody 2F9 (human IgG1) (antibody, V domains shown)
VH: EVQLVESGGGVVRPGGSLRLSCAASGFTFDDYGMSWVRQAPGKGLEWVSGLSWNGGNTYYADSVKGRFTISRDNAKNSLYLQMNSLRAEDTALYYCARGSRYNWNYDAFDIWGQGTLVTVSS
VL: DIQMTQSPSSLSASIGDRVTITCRASQGIRNALGWYQQKPGKAPKRLIYAASNLQSGVPSRFSGSGSGTEFTLTISSLQPEDFATYYCLQHNSYPFTFGPGTKVEIKR
- IC50 of indirect killing assay to evaluate the internalization of recombinant anti-CDH17 antibodies into AsPC1 cells [1]: 0.14 nM

B10: anti-CDH17 recombinant antibody 9E2 (human IgG1) (antibody, V domains shown)
VH: B9 VH with D31N, L51I, S52N, N57S, K65R, N105S
VL: B9 VL with I15V, I29V, N53S
- IC50 of indirect killing assay to evaluate the internalization of recombinant anti-CDH17 antibodies into AsPC1 cells [1]: 0.15 nM
